According to IntAct's records for PubMed 14504388:

B1: Protein phosphatase 2C 77 (Arabidopsis thaliana (Mouse-ear cress)), O04719 (parent)
chain: MDEVSPAVAVPFRPFTDPHAGLRGYCNGESRVTLPESSCSGDGAMKDSSFEINTRQDSLTSSSSAMAGVDISAGDEINGSDEFDPRSMNQSEKKVLSRTESRSLFEFKCVPLYGVTSICGRRPEMEDSVSTIPRFLQVSSSSLLDGRVTNGFNPHLSAHFFGVYDGHGGSQVANYCRERMHLALTEEIVKEKPEFCDGDTWQEKWKKALFNSFMRVDSEIETVAHAPETVGSTSVVAVVFPTHIFVANCGDSRAVLCRGKTPLALSVDHKPDRDDEAARIEAAGGKVIRWNGARVFGVLAMSRSIGDRYLKPSVIPDPEVTSVRRVKEDDCLILASDGLWDVMTNEEVCDLARKRILLWHKKNAMAGEALLPAEKRGEGKDPAAMSAAEYLSKMALQKGSKDNISVVVVDLKGIRKFKSKSLN
partner: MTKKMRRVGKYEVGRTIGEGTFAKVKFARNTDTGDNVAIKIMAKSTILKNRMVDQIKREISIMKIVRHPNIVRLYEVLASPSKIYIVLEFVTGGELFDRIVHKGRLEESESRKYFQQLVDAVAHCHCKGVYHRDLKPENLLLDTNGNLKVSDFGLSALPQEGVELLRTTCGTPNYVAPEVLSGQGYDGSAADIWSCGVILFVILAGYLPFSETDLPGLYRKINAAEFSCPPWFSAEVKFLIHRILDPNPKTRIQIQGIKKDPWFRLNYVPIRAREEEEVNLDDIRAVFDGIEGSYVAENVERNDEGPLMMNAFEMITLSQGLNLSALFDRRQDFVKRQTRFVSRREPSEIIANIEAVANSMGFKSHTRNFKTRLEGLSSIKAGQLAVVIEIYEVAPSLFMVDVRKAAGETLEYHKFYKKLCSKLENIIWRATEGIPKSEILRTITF
B2: CBL-interacting serine/threonine-protein kinase 24 (Arabidopsis thaliana (Mouse-ear cress)), Q9LDI3 (parent)
chain: B1 partner

Variants of: B1
Conditions: with cipko_arath CIPK24, Q9LDI3

| effect of a mutation on the interaction | Variant |
| --- | --- |
| decreasing interaction | MDEVSPAVAVPFRPFTDPHAGLRGYCNGESRVTLPESSCSGDGAMKDSSFEINTRQDSLTSSSSAMAGVDISAGDEINGSDEFDPRSMNQSEKKVLSRTESRSLFEFKCVPLYGVTSICGRRPEMEDSVSTIPRFLQVSSSSLLDGRVTNGFNPHLSAHFFDVYDGHGGSQVANYCRERMHLALTEEIVKEKPEFCDGDTWQEKWKKALFNSFMRVDSEIETVAHAPETVGSTSVVAVVFPTHIFVANCGDSRAVLCRGKTPLALSVDHKPDRDDEAARIEAAGGKVIRWNGARVFGVLAMSRSIGDRYLKPSVIPDPEVTSVRRVKEDDCLILASDGLWDVMTNEEVCDLARKRILLWHKKNAMAGEALLPAEKRGEGKDPAAMSAAEYLSKMALQKGSKDNISVVVVDLKGIRKFKSKSLN [G162D] |
| decreasing interaction | MDEVSPAVAVPFRPFTDPHAGLRGYCNGESRVTLPESSCSGDGAMKDSSFEINTRQDSLTSSSSAMAGVDISAGDEINGSDEFDPRSMNQSEKKVLSRTESRSLFEFKCVPLYGVTSICGRRPEMEDSVSTIPRFLQVSSSSLLDGRVTNGFNPHLSAHFFGVYDGHDGSQVANYCRERMHLALTEEIVKEKPEFCDGDTWQEKWKKALFNSFMRVDSEIETVAHAPETVGSTSVVAVVFPTHIFVANCGDSRAVLCRGKTPLALSVDHKPDRDDEAARIEAAGGKVIRWNGARVFGVLAMSRSIGDRYLKPSVIPDPEVTSVRRVKEDDCLILASDGLWDVMTNEEVCDLARKRILLWHKKNAMAGEALLPAEKRGEGKDPAAMSAAEYLSKMALQKGSKDNISVVVVDLKGIRKFKSKSLN [G168D] |

Variants of: B2
Conditions: with ABI2, O04719

| effect of a mutation on the interaction | Variant |
| --- | --- |
| decreasing interaction | MTKKMRRVGKYEVGRTIGEGTFAKVKFARNTDTGDNVAIKIMAKSTILKNRMVDQIKREISIMKIVRHPNIVRLYEVLASPSKIYIVLEFVTGGELFDRIVHKGRLEESESRKYFQQLVDAVAHCHCKGVYHRDLKPENLLLDTNGNLKVSDFGLSALPQEGVELLRTTCGTPNYVAPEVLSGQGYDGSAADIWSCGVILFVILAGYLPFSETDLPGLYRKINAAEFSCPPWFSAEVKFLIHRILDPNPKTRIQIQGIKKDPWFRLNYVPIRAREEEEVNLDDIRAVFDGIEGSYVAENVERNDEGPLMMNAFEMITLSQGLNLSALFDRRQDFVKRQTAAVSRREPSEIIANIEAVANSMGFKSHTRNFKTRLEGLSSIKAGQLAVVIEIYEVAPSLFMVDVRKAAGETLEYHKFYKKLCSKLENIIWRATEGIPKSEILRTITF [R340A;F341A] |
